The values that follow come from patent publication US20250101126A1.

First the molecules themselves.
B1: 2D5-HV1-69-C/KV2B (antibody, V domains shown)
VH: QVQLVQSGAEVKKPGSSVKVSCKASGYTFSDHAIHWVRQAPGQGLEWLGYISPGNADINYAQKFQGRVTITADKSTSTAYMELSSLRSEDTAVYYCKRSMANSFDYWGQGTLVTVSS
VL: DIVMTQTPLSLPVTPGEPASISCRSSQSVLYSSDEKTYLAWYLQKPGQSPQLLIYWASTRESGVPDRFSGSGSGTDFTLKISRVEAEDVGVYYCHQYLSSYTFGQGTKLEIK
B2: 2D5-HV1-69-A/KV2A (antibody, V domains shown)
VH: B1 VH with S30T, A56D, N59Q, A61N, Q62A, Q65K, V68A, I70L, Y95F
VL: B1 VL with M4L, R24K, E35Q, T37N
B3: 2D5-HV1-69-B/KV2B (antibody, V domains shown)
VH: B1 VH with S30T, A56D, N59Q, A61N, Q65K
VL: B1 VL
B4: 2D5-HV1-3B/KV2B (antibody, V domains shown)
VH: B1 VH with S16A, S30T, G44R, A56D, N59Q, A61S, Q65K, T76A
VL: B1 VL

Changes are numbered by the printed parent chain.

For one assay, the target named is Tn-glycosylated MUC4 on cells (MUC4-Tn; COSMC-KO cells, cancer tissue) (UniProt Q99102). In words: flow cytometry on T3M4 COSMC-KO (T3M4-M) cells.
Take B1: the EC50 amounted to 0.0194 µg/mL.

In turn, B2 came in with an EC50 of 0.0179 µg/mL.

The molecule B3 registered an EC50 of 0.0248 µg/mL.

Consider B4, for which the concentration giving a half-maximal response (EC50) stood at 0.0163 µg/mL.

For a further assay, the target named is MUC4-Tn glycopeptide … (SEQ ID NO:154) with O-linked GalNAc on the serine and threonine at positions 12 and 13. Briefly: BLI (Octet), MUC4 glycopeptide on biosensor. For orientation: Biolayer interferometry detects binding as a change in optical thickness at a sensor tip.
Chain of MUC4-Tn glycopeptide … (SEQ ID NO:154) with O-linked GalNAc on the serine and threonine at positions 12 and 13 (peptide, as listed by the source): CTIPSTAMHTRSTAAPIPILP
Molecule B1 gave a Kd of 5.3 nM.

The molecule B2 yielded a dissociation constant Kd of 4.1 nM.

As for B3, the Kd came out at 3.3 nM.

B4: the dissociation constant Kd was found to be 7.7 nM.

The term EC50 denotes the midpoint of the concentration-response curve. What is called Kd is the concentration at which binding is half-saturated. Lower therefore signals a tighter complex.
